Numbering of substitutions follows the chain as printed.
T1: human FGFR1b-IIIb extracellular domain with a HIS tag (human)
T1 construct: also called huFGFR1b-IIIb; hFGFR1b-IIIb
T1 chain: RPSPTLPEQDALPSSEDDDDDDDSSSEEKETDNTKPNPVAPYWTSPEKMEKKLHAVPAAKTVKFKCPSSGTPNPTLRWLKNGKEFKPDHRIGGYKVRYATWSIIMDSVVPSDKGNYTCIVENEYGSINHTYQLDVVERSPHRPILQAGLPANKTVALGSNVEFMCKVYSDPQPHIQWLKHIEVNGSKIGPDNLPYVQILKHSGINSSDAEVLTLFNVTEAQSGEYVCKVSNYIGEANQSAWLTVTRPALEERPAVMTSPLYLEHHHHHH

T2: human FGFR1b-IIIc extracellular domain with a HIS tag (human, UniProt P11362 22-376)
T2 construct: also called huFGFR1b-IIIc; hFGFR1b-IIIc
T2 sequence: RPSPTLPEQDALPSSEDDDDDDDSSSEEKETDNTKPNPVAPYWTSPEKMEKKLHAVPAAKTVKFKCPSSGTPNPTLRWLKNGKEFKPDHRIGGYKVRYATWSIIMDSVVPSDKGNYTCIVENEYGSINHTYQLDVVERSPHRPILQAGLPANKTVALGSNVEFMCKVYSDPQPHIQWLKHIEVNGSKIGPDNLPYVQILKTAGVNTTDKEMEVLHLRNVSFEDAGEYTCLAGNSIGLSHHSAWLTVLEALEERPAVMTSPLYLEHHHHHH

T3: muFGFR1a-IIIc (mouse, UniProt P16092 22-376)
T3 construct: Bought, His6 tag; also called mouse FGFR1a-IIIc His6-tagged; murine FGFR1a-IIIc
T3 sequence (looked up): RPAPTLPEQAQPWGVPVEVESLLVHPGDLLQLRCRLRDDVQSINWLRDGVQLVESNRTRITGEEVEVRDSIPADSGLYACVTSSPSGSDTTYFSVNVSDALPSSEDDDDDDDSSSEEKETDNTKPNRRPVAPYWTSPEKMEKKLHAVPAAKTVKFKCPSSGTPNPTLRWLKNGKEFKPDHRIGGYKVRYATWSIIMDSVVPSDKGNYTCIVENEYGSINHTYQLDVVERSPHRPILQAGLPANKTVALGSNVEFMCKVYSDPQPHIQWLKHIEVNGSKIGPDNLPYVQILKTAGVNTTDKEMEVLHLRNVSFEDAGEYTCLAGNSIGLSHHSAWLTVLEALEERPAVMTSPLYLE

T4: ratFGFR1a-IIIc (rat, UniProt Q04589 22-376)
T4 construct: Bought, His6 tag; also called rat FGFR1a-IIIc His6-tagged
T4 sequence (looked up): T3 sequence (looked up) with V53A, S83N, N164S, V287D

T5: Human FGFR1 D2-His6 (human, UniProt P11362 22-254)
T5 construct: also called D2 domain; F3FR1c-D2
T5 sequence: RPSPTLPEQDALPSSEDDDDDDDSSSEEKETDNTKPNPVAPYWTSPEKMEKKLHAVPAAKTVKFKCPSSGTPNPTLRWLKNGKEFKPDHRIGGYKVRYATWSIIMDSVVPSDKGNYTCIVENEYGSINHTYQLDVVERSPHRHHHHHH

B1: #A08 IgG1 (standard IgG1 built from the #A08 lead heavy and light chains) (antibody, V domains shown)
VH: EVQLQESGPGLVKPSGTLSLTCAVSGGSISSNNWWSWVRQPPGKGLEWIGEIYHSGSTSYNPSLKSRVTISVDKSKNQFSLKLSSVTAADTAVYYCARGTDWFDPWGQGTLVTVSS
VL: SYVLTQPPSVSVAPGQTARITCGGNNIGSESVHWYQQKPGQAPVLVVYDDSDRPSGIPERFSGSNSGNTATLTISRVEAGDEADYYCQVWDSTSDHRVFGGGTKLTVLG
notes: also called #A08 lead IgG1; mAb #A08 in the IgG1 format
B2: #G04 SEEDbody (monovalent) (antibody)
heavy: QVQLQESGPGLVKPSGTLSLTCAVSGGSISSNNWWSWVRQPPGKGLEWIGEIYHSGSTSYNPSLKSRVTISVDKSKNQFSLKLSSVTAADTAVYYCARGTDWYDLWGQGTLVTVSSASTKGPSVFPLAPSSKSTSGGTAALGCLVKDYFPEPVTVSWNSGALTSGVHTFPAVLQSSGLYSLSSVVTVPSSSLGTQTYICNVNHKPSNTKVDKRVEPKSCDKTHTCPPCPAPELLGGPSVFLFPPKPKDTLMISRTPEVTCVVVDVSHEDPEVKFNWYVDGVEVHNAKTKPREEQYNSTYRVVSVLTVLHQDWLNGKEYKCKVSNKALPAPIEKTISKAKGQPFRPEVHLLPPSREEMTKNQVSLTCLARGFYPKDIAVEWESNGQPENNYKTTPSRQEPSQGTTTFAVTSKLTVDKSRWQQGNVFSCSVMHEALHNHYTQKTISLSPG
chain: EPKSSDKTHTCPPCPAPELLGGPSVFLFPPKPKDTLMISRTPEVTCVVVDVSHEDPEVKFNWYVDGVEVHNAKTKPREEQYNSTYRVVSVLTVLHQDWLNGKEYKCKVSNKALPAPIEKTISKAKGQPREPQVYTLPPPSEELALNELVTLTCLVKGFYPSDIAVEWLQGSQELPREKYLTWAPVLDSDGSFFLYSILRVAAEDWKKGDTFSCSVMHEALHNHYTQKSLDRSPG
light: SYVLTQPPSVSVAPGQTARITCGGNNIGSESVHWYQQKPGQAPVLVVYDDSDRPSGIPERFSGSNSGNTATLTISRVEAGDEADYYCQVWDSTSDHRVFGGGTKLTVLGQPKAAPSVTLFPPSSEELQANKATLVCLISDFYPGAVTVAWKADSSPVKAGVETTTPSKQSNNKYAASSYLSLTPEQWKSHKSYSCQVTHEGSTVEKTVAPTECS
notes: also called #G04-SEED(AG)
B3: mAb #A05 (antibody, V domains shown)
VH: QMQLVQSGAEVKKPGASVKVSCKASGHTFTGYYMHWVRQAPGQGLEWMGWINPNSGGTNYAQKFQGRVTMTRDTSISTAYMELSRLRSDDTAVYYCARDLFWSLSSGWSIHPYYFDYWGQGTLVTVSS
VL: QSALTQPASVSGSPGQSITISCTGTSSDVGSYNLVSWYQQHPGKAPKLMIYGGSKRPSGVPDRFSGSKSDTSASLTISGLQAEDEADYYCCSYTYNGDVFGTGTKVTVL
notes: also called #A05 hit; A05 (IgG1)

Assays:
FGFR1 on NCI-H520 cells [1] = target: T6, FGFR1 on NCI-H520 cells (human, UniProt P11362 22-822); test: cell-based or functional assay
[2] = target: T1, human FGFR1b-IIIb extracellular domain …; test: SPR (BIAcore), IgG1 format; target IIIb by paragraph 74 and paragraph 125, the table's title says IIIc; IgG1 (bivalent), not SEEDbody
Method: (§1) Binding affinities of anti-FGFR1 antibodies to FGFR1 were measured by Surface Plasmon Resonance (SPR) using a GE Healthcare BIAcore 4000 instrument as follows. Goat anti-human Fc antibody (Jackson ImmunoResearch Laboratories #109-005-098) was first immobilized on BIAcore carboxymethylated dextran CM5 chip using direct coupling to free amino groups following the procedure described by the manufacturer. Antibodies were then captured on the CM5 biosensor chip to achieve approximately 200 response units (RU). Binding measurements were performed using the running HBS-EP+ buffer. A 2-fold dilution series of His-tagged FGFR1 proteins were injected at a flow rate of 30 μl/min at 25° C. Association rates (kₒₙ, per mol/s) and dissociation rates (koff, per s) were calculated using a simple 1:1 Langmuir binding model (Biacore 4000 Evaluation Software). The equilibrium dissociation constant (KD, mol) was calculated as the ratio of koff/kₒₙ.
The affinities to human FGFR1b-IIIb for the affinity matured clones reformatted as IgG and monovalent SEEDbodies were measured by BIAcore (using a protocol similar to the one described in Example 1.8) and compared to those of mAb #08 (Table 5).

[3] = target: T2, human FGFR1b-IIIc extracellular domain …; test: ELISA, EC50 from OD450 curves, monovalent SEEDbody format
Method: (§2) The binding selectivity of the antibodies were tested by ELISA against the different FGFR family members: FGFR1, FGFR2, FGFR3 and FGFR4. Briefly plates were coated overnight with the different His6-tagged FGFR proteins, after blocking with 1% Bovine Serum albumin, 1 or 0.1 μg/ml of anti-FGFR1 antibodies were incubated for 1 h at room temperature. After washing, the bound antibodies were incubated for 1 h at room temperature with a peroxidase affiniPure F(ab′)2 Fragment goat anti-human Fc (Jackson ImmunoResearch Laboratories #109-036-098) and detection was performed using the TMB HRP Substrate solution (BioFx Lab # TMBW-1000-01).
(§3) The antibody #A08 both as an IgG1 (bivalent) and as a SEEDbody (monovalent), was affinity matured using the yeast display technology described in (Rhiel et al. 2014) and performing light chain shuffling from immunized OmniRats and naïve human library followed by CDR-H3 parsimonious mutagenesis. Following several sorting rounds, yeast clones were picked, unique clones were reformatted as described in Examples 1.6 and 3.1. The binding affinities of the anti-FGFR1 molecules against human FGFR1b-IIIb) and human FGFR1b-IIIc) were measured by ELISA using a similar protocol as described in Example 1.9. The OD450 was plotted against the antibody concentration and GraphPad Prism software was used to calculate EC₅₀ values (see FIG. 10). […] The best results were obtained with mAb #A02 and #C01 showing an EC50 improvement in both IgG1 and SEEDbody formats.

[4] = target: T1, human FGFR1b-IIIb extracellular domain …; test: as above
Method: as §2, §3

rheFGFR1a-IIIc = target: T7, rheFGFR1a-IIIc (rhesus monkey); test: SPR (Biacore 4000), antibody captured, His-tagged FGFR1 injected; no unit in the table, nM inferred from paragraph 90
T7 construct: Bought, His6 tag; also called rhesus monkey FGFR1a-IIIc His6-tagged
Method: as §1

muFGFR1a-IIIc = target: T3, muFGFR1a-IIIc; test: as above
Method: as §1

ratFGFR1a-IIIc = target: T4, ratFGFR1a-IIIc; test: SPR (Biacore 4000), antibody captured, His-tagged FGFR1 injected
Method: as §1

Human FGFR1 D2-His6 = target: T5, Human FGFR1 D2-His6; test: ELISA, antibody titrated on FGFR1 Ig-D2, O.D. 450 nm [panel FGFR1 Ig-D2]
FGFR1 on NCI-H520 cells [5] = target: T6, FGFR1 on NCI-H520 cells; test: cell-based or functional assay; remark: listed apart in the source
[6] = target: T2, human FGFR1b-IIIc extracellular domain …; test: SPR (Biacore 4000), antibody captured, His-tagged FGFR1 injected; differs from the cell of Table 1
Method: as §1

T6 sequence (P11362 22-822): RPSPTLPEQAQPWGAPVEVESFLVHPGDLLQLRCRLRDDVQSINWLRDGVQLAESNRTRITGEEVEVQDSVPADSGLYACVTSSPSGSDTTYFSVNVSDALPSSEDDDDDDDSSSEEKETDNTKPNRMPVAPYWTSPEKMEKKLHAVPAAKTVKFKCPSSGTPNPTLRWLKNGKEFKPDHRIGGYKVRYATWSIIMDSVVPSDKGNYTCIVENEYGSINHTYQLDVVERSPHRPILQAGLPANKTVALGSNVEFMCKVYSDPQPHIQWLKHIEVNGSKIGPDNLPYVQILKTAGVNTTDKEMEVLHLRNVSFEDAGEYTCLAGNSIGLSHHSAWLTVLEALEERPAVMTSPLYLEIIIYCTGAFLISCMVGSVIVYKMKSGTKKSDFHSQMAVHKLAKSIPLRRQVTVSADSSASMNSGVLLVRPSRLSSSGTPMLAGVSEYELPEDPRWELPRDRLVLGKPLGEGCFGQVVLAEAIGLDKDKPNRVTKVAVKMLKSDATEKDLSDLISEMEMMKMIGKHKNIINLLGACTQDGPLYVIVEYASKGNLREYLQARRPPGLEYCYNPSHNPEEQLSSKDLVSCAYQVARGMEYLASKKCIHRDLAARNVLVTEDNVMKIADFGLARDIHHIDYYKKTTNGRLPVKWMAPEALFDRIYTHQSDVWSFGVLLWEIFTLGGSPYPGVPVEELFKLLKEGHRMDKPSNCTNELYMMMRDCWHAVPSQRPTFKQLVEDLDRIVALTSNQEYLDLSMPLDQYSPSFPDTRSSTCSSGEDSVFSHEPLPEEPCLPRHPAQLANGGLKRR

Row | Binder | IC50, pFGFR1 inhibition in NCI-H520 cells, FGF1, IgG1 (FGFR1 on NCI-H520 cells [1]) [M] | IC50, pFGFR1 inhibition in NCI-H520 cells, FGF2, IgG1 (FGFR1 on NCI-H520 cells [1]) [M] | IC50, pFGFR1 inhibition in NCI-H520 cells, non-stimulated, IgG1 (asterisk: partial response) (FGFR1 on NCI-H520 cells [1]) [M] | Kd [2] [pM] | binding result [3] | binding result [4] | Kd (rheFGFR1a-IIIc) [pM] | Kd (muFGFR1a-IIIc) [pM] | binding result (ratFGFR1a-IIIc) | binding result (Human FGFR1 D2-His6) | IC50, inhibition of P-FGFR1 in NCI-H520 cells, FGF1 stimulated (asterisk: partial response) (FGFR1 on NCI-H520 cells [5]) [pM] | IC50, inhibition of P-FGFR1 in NCI-H520 cells, FGF2 stimulated (FGFR1 on NCI-H520 cells [5]) [pM] | Kd [6] [pM] | IC50, pFGFR1 inhibition in NCI-H520 cells, FGF1, IgG1 (asterisk: partial response) (FGFR1 on NCI-H520 cells [1]) [M] | IC50, pFGFR1 inhibition in NCI-H520 cells, non-stimulated, IgG1 (FGFR1 on NCI-H520 cells [1]) [M]
1 | B1 | 1e-09 | 2e-10 | 5e-08 | 60 | – | – | – | – | – | – | – | – | – | – | –
2 | B2 | – | – | – | – | binds | binds | – | – | – | – | – | – | – | – | –
3 | B3 | – | 3e-09 | – | – | – | – | 510 | 1600 | no binding | no binding (tested: about 0.7 nM (Log(nM) about -0.15)) | 1000 | 1000 | 10 | 8e-09 | > 1e-06

Reference: patent publication US20190367620A1 (Merck KGaA, published 2019)
